Data on 41 sequences can be found in the nanobody polyreactivity screen of Harvey et al. (2022).

A short description of this series: yeast display, Sf9 membrane polyspecificity reagent, FACS + sequencing; frameworks hold sequencing errors. An outline of the steps: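 Galactose induction of a Saccharomyces cerevisiae BJ5465 synthetic nanobody display library ran 36–48 hours. The cells were then stained for 1 hour at 4 °C with 10% biotinylated, detergent-solubilized Sf9 membrane reagent, pulled down on streptavidin microbeads and FACS-sorted into low and high (top ~1%) gates on expression and reagent-binding fluorescence. Labels for polyreactivity follow the gate of origin.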
For the sequence “QVQLVESGRGLVQAGGSLRLSCAASGRTLSQYAMGWYRQAPGKERELVAAITRSGGSTYYADSVTGRFTISRDISKNTVYLQMNSLKRDDTAVYYCNITLYTTYDYWGQGTQVTVSS”, the “polyreactivity (PSR sort gate)” value is “low polyreactivity”.

As to “QVQLVESGRGLVQAGGSLRLSCAASGRTVTNNVLGWYRQAPGKEREFVASISSGGGSTYYADSVKGRFTISRDNANNTVYVQMNSLKPEDTAVYYCAAGYWWRYALYGYWGQGTQVTVSS”, the “polyreactivity (PSR sort gate)” value is recorded as “low polyreactivity”.

Turning to “QVQLVESGRGLVQAGGSLRLSCAASGSIFKYYAMGWYRQAPGKERELVAAITSGGSTSYADSVKGRFTISRDNAKNTVYLQMNSLKPEDTAVYYCAAELRSWRSYGSVWRWYYYWGQGTQVTVSS”, the “polyreactivity (PSR sort gate)” value was “high polyreactivity”.

“QVQLVESGRGLVQAGGSLRLSCAASGSIFPTYALGCYRQAPGKERELVAAISSGENTYYADSVKGRFTISRDNAKNTVSLQMNSLKPEDTAVYFCAAADNYGIRDLYASDGTQNYYWGQGTQVTVSS”: the “polyreactivity (PSR sort gate)” value is “low polyreactivity”.

Turning to “QVQLVESGRGLVQAGGSLRLSCAASGSIFYDNAMGWYRQAPGKDRELVAAISYSGDSTYYADSVKGRFTISHDNAKNTVYLQMNSLKPEDTAVYYCAADYYGIYYSGTSEYWGQGTQVTVSS”, the “polyreactivity (PSR sort gate)” value was “low polyreactivity”.

As for “QVQLVESGRGLVQAGGSLRLSCAASGSTFNINAMGWYRQAPGKERELVAAISWSGDITYYADSVKGRFTISRDNAKNTVYLQMNSLKPEDTAVYYCNTDDPGNYWYAEYDYWGQGTQVTVSS”, the “polyreactivity (PSR sort gate)” value is reported as “low polyreactivity”.

As for “QVQLVESGRGLVQAGGSLRLSCAASGSTFVANDMGWYSQAPGKERELVAAISWSDATTYYADSVKGRGTISRDNAKNTVYLQMNSRKPEDNAVYDCAATRDTNNMDYWGHGTQVTVSS”, the “polyreactivity (PSR sort gate)” value is recorded as “low polyreactivity”.

With “QVQLVESGRGLVQAGGSLRLSCAASGVTFNVYAMGWYREAPGKVRELVAAISYNGGRTYYADSVKGRFTISRDNAKNTVYLQINSLKPEDTAVFYCAALYYFTPSDGRRYDYWGQCTQVTVSS”, the “polyreactivity (PSR sort gate)” value is on record as “high polyreactivity”.

Turning to “QVQLVESGRGLVQAGGSLRLSCAPSGFTFHNNVMGWYRQAPGKERELVATISKSGGSTYYADSVKGRFTISRDNAKNTVYLQMNSLKPEDTAVYYCARRYRDYGRYGYWGQGTQVTVSS”, the “polyreactivity (PSR sort gate)” value is reported as “high polyreactivity”.

As for “QVQLVESGRGLVQAGGSLRLSCAPSGLNFVRYAMGWYRQAPGKERELVARITSRGTSTYYADSVKGRFTISRDNAKNTVYLQMNSLKPEDTAVYYCIKFRSFRDKTRYDYWGQGTQVTVSS”, the “polyreactivity (PSR sort gate)” value is recorded as “low polyreactivity”.

In the case of “QVQLVESGRGLVQAGGSLRLSCASSGRIFTYTAMGWYRQAPWKDSELVARITSGGNTNYADSVKGRFTISRDNAKNTVYLPMNSLKPEDTAVYYSATGLYWFTNRYGCWGLGTQVTVSS”, the “polyreactivity (PSR sort gate)” value was “low polyreactivity”.

For the sequence “QVQLVESGRGLVQAGVSLRISCAPSGRIFSGYAMGWYRQAPGKERELVAAITSSSGSTYYADSVKWRFTISRDNAKNTFYLQMISLKPEDTAVYYCAAEYVRLYWYTSDYWGQGTEVTVSS”, the “polyreactivity (PSR sort gate)” value is recorded as “low polyreactivity”.

For the sequence “QVQLVESGRRLVQAGGSLRLSCAASGLTLYKNGMGWYRKAPGQVRELVAVISRSGGRTYYADSVKGRFTISRDNAKNTVYVQMNSLKPEDTAVYYCAARQYGPRYTYYYWGQGTQVTVSS”, the “polyreactivity (PSR sort gate)” value is “high polyreactivity”.

Consider “QVQLVESGVCIVQAGGSLRLSGADSGNTLIQYAMRWYRQPHGKERELVAGISGSDDSTYYADSVKGRFTISRDNAKNTVYLQMNSLKPEDTAVYYCAALSISPSRTGYYWGQGTQVTVSS”, for which the “polyreactivity (PSR sort gate)” value is listed as “low polyreactivity”.

With “QVQLVESGVCLVQAGGSLRLICAASGNTFYRYAMGWYRQAPGKERELVAAITGRGGSTYYADSVKGRFTISRDNAKNTVYLQMNSQKPEDTAVYYCAAESYGYGNDYWGQGTQVTVSS”, the “polyreactivity (PSR sort gate)” value is on record as “low polyreactivity”.

In the case of “QVQLVESGVCLVQAGGSLRLSCAASGFTFKWYAMGWYRQAPGKERELVATITIGGRTNYADSVKGRFTISRDNAKNTVYLQMNSLKPEETAVYYCATYFVGFRLSDYDYWGQGTQVTVSS”, the “polyreactivity (PSR sort gate)” value was “low polyreactivity”.

As for “QVQLVESGVCLVQAGGSLRLSCAASGSTYTYAMGWYRQAPGKERELVADITQSGGSTYYADSVKGRFTISRDNAKKTVYLQMNTLKPEDTAVYYCNAESRHVFEDEYWGQGTQVTVSS”, the “polyreactivity (PSR sort gate)” value is reported as “low polyreactivity”.

Turning to “QVQLVESGVCLVQAGGSLRLSCAATGFTIKYYAMGWYRQPPGKEMELVAAISWTGANTYYADSVKGRFTISRDNAKNTVYLQMNSLKPDYTAVYYCAAGYLIGHSVRTTVRTIYEYWGQGTQVTVSS”, the “polyreactivity (PSR sort gate)” value was “high polyreactivity”.

For “QVQLVESGVGLDQAGGSLRLSCAASGGIIAINAMGWYSQAPGKERELVAAISWGDGMTYYADSVKGRFTISRDNAKNTVYLQMNSLKPDDSAVYYCAADADEYRGGDVSWGQGTQVTVSS”, the “polyreactivity (PSR sort gate)” value was “low polyreactivity”.

In the case of “QVQLVESGVGLLQEGGSLSLSCAASGRTFRWYGMGWYSQAPGKEREFVAAISFRGGTTYYADSVKGRFTISRDNAKNTVYLQMNSLKPEDTAVYYCAARSGYYTSDYKYYYWGQGTQVTVSS”, the “polyreactivity (PSR sort gate)” value is “high polyreactivity”.

Consider “QVQLVESGVGLVKAGGSLRLSCAASGFTIRPYAMGWYRQAPGKERELVAAITSGDSTNYADSVKGRFTISRDNAKNTVYLQMNSLKPEDTAVYYCAVDGGEFTSYGYWGQGTQVTVSS”, for which the “polyreactivity (PSR sort gate)” value is “low polyreactivity”.

In the case of “QVQLVESGVGLVKAGGTLRLSCAASGGIFDYNAMGWYRQAPGKERELVAYYADSVKGRFTLSRDNAKNTVYLQMNSLKPEDTAVYYCAVDGGEFSSYGYWGQGTQVTVSS”, the “polyreactivity (PSR sort gate)” value is “low polyreactivity”.

On to “QVQLVESGVGLVNAGGSLRLSCAASGYIFSPNVMGWYRQAPGKERELVAAITRGGGTYYADSVKGRFTISRDNAKNTVYLHLNSLKPEDTAVYYCNEDYTLSVYGTTYCYNYWGQGTQVTVSS”, for which the “polyreactivity (PSR sort gate)” value is listed as “high polyreactivity”.

Consider “QVQLVESGVGLVQAAGSLRLSCAASGRIFYHYTMGWYRQAPGKERELVAAITSGGSTYYADSVKGRFTISRDNAKNTVYLQMNSLKPEDTAVYYCAAEGYTYYPVYSTRMYYWGQGTQVTVSS”, for which the “polyreactivity (PSR sort gate)” value was “low polyreactivity”.

As to “QVQLVESGVGLVQAGGSIRLSCAASGRTFRYYTMGWYRQAPGKEREFVAAISSTGGTYYADSVKGRFTISRDNAKNTVYLQMNSLKPEDTAVYYCAATFIQVVVNVQLYDYDYWGQGTQVSVSS”, the “polyreactivity (PSR sort gate)” value is on record as “low polyreactivity”.

“QVQLVESGVGLVQAGGSLRLCCAASGSTSKYYAMVWYRQSPGKERELVAAITWSDVSTYYADSVKGRFTISRDNAKNTVYLQMNSLKPADTAVYYCNAGYDYWGQGTQVTVSS”: the “polyreactivity (PSR sort gate)” value is given as “low polyreactivity”.

Turning to “QVQLVESGVGLVQAGGSLRLICAASGRIFANYAMGWYRQAPGKERELVAAITGSGGTTYYADSVKGRFTISRDNAKNSVYLEMNSLKPEDTAVYYCATPPPVVWQRWYREYDYWGQGTQVTVSS”, the “polyreactivity (PSR sort gate)” value is given as “low polyreactivity”.

Regarding “QVQLVESGVGLVQAGGSLRLIWAASGSTFVKNVMGWYRQAPGKERELVAGITRGGSTYYADSVKGRFTISRDNAKKTVYLQMNSLKPEDTAVYYCAKRYAWDRDYWGQGTQVTVSS”, the “polyreactivity (PSR sort gate)” value is on record as “high polyreactivity”.

With “QVQLVESGVGLVQAGGSLRLSCAASGFIFYGYAMGWYRQAPGKERELVAGNSTGGSTNYADSVKGRFTISRENAKNTVYLQMNSMKPEDTAVYDGAVVDVEQHVGHWGQVTQVTVSS”, the “polyreactivity (PSR sort gate)” value is on record as “low polyreactivity”.

For “QVQLVESGVGLVQAGGSLRLSCAASGFIIRTYAMGWYIQAPGKERELVATITGDGSTNYADSVKGRFTISRDNAKNTVYLQMNSLKPEDTAVYYCSRDDRLAVDYWGQGTQVTVSS”, the “polyreactivity (PSR sort gate)” value is recorded as “low polyreactivity”.

Consider “QVQLVESGVGLVQAGGSLRLSCAASGFTFMKNAMGWYRQAPGKERELVAAITSSGGRPYYADSVKGRFTISRDIAKNTVYLQMNSLKPEDTAVYYCNKGPLPGYDYWGQGTQVTVSS”, for which the “polyreactivity (PSR sort gate)” value is “high polyreactivity”.

On to “QVQLVESGVGLVQAGGSLRLSCAASGFTFTRYAMGWYRQAPGKERELVAAISWTGGSTYYADSVKGRFTISRDNAKNTVYLQMNSLKPEDTAVYYCAGRFNYQWSKFGYWGQGTQVTVSS”, for which the “polyreactivity (PSR sort gate)” value is recorded as “high polyreactivity”.

Consider “QVQLVESGVGLVQAGGSLRLSCAASGGIFVPYAMGWYRQAPGKERELVAGITSGGSTNYADSVKGRFTISRDNAKNTVYLQMNSLKPEDTAVYYCAARRRPGGRYKSRVWYDYWGQGTQVTVSS”, for which the “polyreactivity (PSR sort gate)” value is on record as “high polyreactivity”.

With “QVQLVESGVGLVQAGGSLRLSCAASGGNFWSYPMGLYRQAPGKEREYVAAITTSAGRTNYADSVKGRFTISRDNAKNSVYLQMNSLKPEDTAVYYCAARSAYPGLGYGFDYWGQGTQVTVSS”, the “polyreactivity (PSR sort gate)” value is “low polyreactivity”.

Regarding “QVQLVESGVGLVQAGGSLRLSCAASGIILYRYSMGWYRQAPGKEREFGAAISRTGASTYYADSVKGRFTISRDNAKKSVYLQMNSRKPEDTAVYYCDVKALDQARYGKSGYWGQGTQVSVSS”, the “polyreactivity (PSR sort gate)” value is “high polyreactivity”.

As for “QVQLVESGVGLVQAGGSLRLSCAASGITFAGNAMGWYRQAPGKERELVATITSDGNTNYADSVKGRFTISRDNAKNTVYLQMNSLKPEDTAVYYCNAEVIVGTDEYDYWGQGTQVTVSS”, the “polyreactivity (PSR sort gate)” value is “low polyreactivity”.

In the case of “QVQLVESGVGLVQAGGSLRLSCAASGITFYSYAMGWYRQAPGKERELVAAITLTGGTTYYADSVKGRFTISRDNAKNTVYLQMKSLKPEDTAVYYCAAQYWWWSLFEYDSWGQGTQVTVSS”, the “polyreactivity (PSR sort gate)” value was “low polyreactivity”.

“QVQLVESGVGLVQAGGSLRLSCAASGNIFLKNAMGWYRQAPGKERELVAAMSKRGGSTYYADSVKGRFTISRDNAKNTVYLQMNSLKPEDTAVYYCAARFKTTGYDYWGQGTQVTVSS”: the “polyreactivity (PSR sort gate)” value is recorded as “high polyreactivity”.

Consider “QVQLVESGVGLVQAGGSLRLSCAASGPTFRNNAMVWSRQAPGKERELVAAITSGGSTNYADSVKGRFTISRDNAKNTVYLQMNSLKPEDTAVYYCAKDFWYVTGGWSSGMDYWGQGTQVSVSS”, for which the “polyreactivity (PSR sort gate)” value was “low polyreactivity”.

Consider “QVQLVESGVGLVQAGGSLRLSCAASGRIFEDNAMGWYRQAPGKERELVAAIDFSGGDTYYADSVKGRFTISRDNAKNTVYLQMYSLKPEDTAVYYCAAGRSGWGYVSWGQGTQVTVSS”, for which the “polyreactivity (PSR sort gate)” value was “low polyreactivity”.

Regarding “QVQLVESGVGLVQAGGSLRLSCAASGRIFGSYTMGWYRQAPGKERELVAGISRRGGSTYYADSVKGRFTISRDNAKNTVYLQMNSLKPEDTAVYYCAVVSSHYKGPGRNGYDYWGQGTQVTVSS”, the “polyreactivity (PSR sort gate)” value is given as “high polyreactivity”.
